Key:
[1] = target: T1, Granulocyte-colony stimulating factor receptor (G-CSF-R) (human); assay: saturation binding of radioligand to THP-1 monocytic cells (value in the text differs from Table 2)
T1 chain: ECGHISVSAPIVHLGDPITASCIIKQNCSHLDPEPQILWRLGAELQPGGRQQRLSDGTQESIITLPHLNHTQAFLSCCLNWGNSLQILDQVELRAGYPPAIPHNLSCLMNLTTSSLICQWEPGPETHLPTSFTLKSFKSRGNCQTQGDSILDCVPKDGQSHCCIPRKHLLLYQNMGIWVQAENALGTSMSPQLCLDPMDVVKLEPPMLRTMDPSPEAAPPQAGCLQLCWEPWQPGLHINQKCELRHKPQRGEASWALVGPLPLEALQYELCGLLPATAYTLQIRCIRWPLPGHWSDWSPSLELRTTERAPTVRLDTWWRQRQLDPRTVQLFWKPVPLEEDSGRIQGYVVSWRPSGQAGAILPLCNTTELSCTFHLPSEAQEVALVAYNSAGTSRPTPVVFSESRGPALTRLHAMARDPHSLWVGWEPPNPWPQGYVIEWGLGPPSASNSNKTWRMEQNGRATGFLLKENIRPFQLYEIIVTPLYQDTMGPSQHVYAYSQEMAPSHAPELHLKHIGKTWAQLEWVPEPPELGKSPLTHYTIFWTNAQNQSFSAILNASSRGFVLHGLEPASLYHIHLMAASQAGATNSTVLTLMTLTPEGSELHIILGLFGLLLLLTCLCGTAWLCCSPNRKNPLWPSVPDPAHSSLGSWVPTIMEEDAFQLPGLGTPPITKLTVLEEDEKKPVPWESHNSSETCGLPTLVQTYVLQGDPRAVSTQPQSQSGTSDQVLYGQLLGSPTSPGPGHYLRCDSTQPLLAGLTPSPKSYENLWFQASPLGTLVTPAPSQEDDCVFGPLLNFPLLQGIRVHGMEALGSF
Procedure: (§1) Binding of [¹²⁵I]-G-CSF was measured using previously described method (Kondo, S., et al. Eur. J. Haematol. 1991, 46, 223-30) with some modifications (Pennington, A., et al. Alzheimer's Disease and Parkinsonism 2013, 3, 121). [¹²⁵I]-G-CSF (specific activity 46.55 TBq/mmol) was purchased from Perkin Elmer (Waltham, Mass.). Cells were incubated in 180 μL of binding medium containing 0.2% BSA, 5 mM MgSO₄, and 50 mM Hepes, pH 7.2 at a concentration of 1.5×10⁷ cells/mL and the appropriate concentration of [¹²⁵I]-G-CSF. Incubations were carried out at room temperature with periodic shaking to ensure continuous mixing of cells and radioactive ligand. […] Nonspecific binding of [¹²⁵I]-G-CSF was measured by incubations in the presence of a 100-fold molar excess of unlabeled G-CSF. […] Bound and free ligand activities were counted after cutting tubes in two pieces and placing the tips and tops, respectively into separate scintillation vials. […] The specific binding was determined from the amount of bound [¹²⁵I]-G-CSF blocked by competition with excess unlabeled G-CSF. The parameters of saturation binding experiments including dissociation constant (Kd), maximum binding capacity (Bmax) and binding cooperativity (h) were calculated with GraphPad Prism 5 software (La Jolla, Calif.) by using nonlinear regression analysis. […]

[2] = target: T1, Granulocyte-colony stimulating factor …; assay: saturation binding of radioligand to THP-1 monocytic cells, nonlinear regression
Procedure: as §1

[3] = target: T1, Granulocyte-colony stimulating factor …; assay: saturation binding of radioligand to SH-SY5Y neuronal cells, nonlinear regression
Procedure: as §1

[4] = target: T1, Granulocyte-colony stimulating factor …; assay: saturation binding of radioligand to SH-SY5Y neuronal cells (value in the text differs from Table 2)
Procedure: as §1

B1: [125I]-G-CSF (ligand)
chain: TPLGPASSLPQSFLLKCLEQVRKIQGDGAALQEKLVSECATYKLCHPEELVLLGHSLGIPWAPLSSCPSQALQLAGCLSQLHSGLFLYQGLLQALEGISPELGPTLDTLQLDVADFATTIWQQMEELGMAPALQPTQGAMPAFASAFQRRAGGVLVASHLQSFLEVSYRVLRHLAQP
modifications: 125I radiolabel (specific activity 46.55 TBq/mmol); labelled residue not stated
[1]
  Kd: 0.0575 nM
[2]
  Kd: 0.0538 nM
[3]
  Kd: 0.608 nM
[4]
  Kd: 0.607 nM
